{
  "source": "paper PMC10786891",
  "about": "“Massively parallel profiling of RNA-targeting CRISPR-Cas13d”",
  "binders": {"B1": {"name": "target 1 A16U,G17A (mixed)", "RNA 1": "CACCCGUGCAAAAAUGCAGGGGUCUAAAACUGAGCGGAUAACCUCUCUAUGG", "RNA 2": "GGGAAUGGAUCCACAUCUACGAAUUCGUACCAUAAUGAGGUUAUCCGCUCACCGAGAUCGGAAGAGCACACGU"}, "B2": {"name": "target 1 insG 3' of 22,insC 3' of 15 (mixed)", "RNA 1": "B1 RNA 1", "RNA 2": "GGGAAUGGAUCCACAUCUACGAAUUCGUACGCAUAGAGCAGGUUAUCCGCUCACCGAGAUCGGAAGAGCACACGU"}, "B3": {"name": "target 1 insU 3' of 13,insC 3' of 3 (mixed)", "RNA 1": "B1 RNA 1", "RNA 2": "GGGAAUGGAUCCACAUCUACGAAUUCGUACCAUAGAGAGUGUUAUCCGCUCCACCGAGAUCGGAAGAGCACACGU"}, "B4": {"name": "target 1 C2U,C7A (mixed)", "RNA 1": "B1 RNA 1", "RNA 2": "B1 RNA 2 with A35G, U36A, C45A, C50U"}, "B5": {"name": "target 1 insG 3' of 16,insC 3' of 15 (mixed)", "RNA 1": "B1 RNA 1", "RNA 2": "B2 RNA 2 with G31C, C32A, A33U, U34A, A35G, G36A, A37G"}, "B6": {"name": "target 1 insG 3' of 6,insC 3' of 5 (mixed)", "RNA 1": "B1 RNA 1", "RNA 2": "B3 RNA 2 with U40G, G41U, U43A, A44U, U45C, C47G, U50C, C51U"}, "B7": {"name": "target 1 insG 3' of 21,insA 3' of 4 (mixed)", "RNA 1": "B1 RNA 1", "RNA 2": "GGGAAUGGAUCCACAUCUACGAAUUCGUACCGAUAGAGAGGUUAUCCGCAUCACCGAGAUCGGAAGAGCACACGU"}, "B8": {"name": "target 1 insU 3' of 14,insU 3' of 7 (mixed)", "RNA 1": "B1 RNA 1", "RNA 2": "B3 RNA 2 with G39U, U40G, C47U, G48C, C49G, U50C, C51U"}, "B9": {"name": "target 1 C22G (mixed)", "RNA 1": "B1 RNA 1", "RNA 2": "B1 RNA 2 with C30G, A35G, U36A"}, "B10": {"name": "target 1 insA 3' of 6,insC 3' of 1 (mixed)", "RNA 1": "B1 RNA 1", "RNA 2": "B3 RNA 2 with U40G, G41U, U43A, A44U, U45C, C47A, C52A, A53C"}, "B11": {"name": "target 1 insA 3' of 11,insA 3' of 10 (mixed)", "RNA 1": "B1 RNA 1", "RNA 2": "B3 RNA 2 with U40G, G41U, U42A, U45A, C46U, G48C, C49G, U50C, C51U"}, "B12": {"name": "target 1 insU 3' of 20,insA 3' of 15 (mixed)", "RNA 1": "B1 RNA 1", "RNA 2": "B2 RNA 2 with G31C, C32A, A33U, C39A"}, "B13": {"name": "target 1 insA 3' of 12,insC 3' of 12 (mixed)", "RNA 1": "B1 RNA 1", "RNA 2": "GGGAAUGGAUCCACAUCUACGAAUUCGUACCAUAGAGAGGACUUAUCCGCUCACCGAGAUCGGAAGAGCACACGU"}, "B14": {"name": "target 1 C6A,U10G (mixed)", "RNA 1": "B1 RNA 1", "RNA 2": "B1 RNA 2 with A35G, U36A, U42G, C46A"}, "B15": {"name": "target 1 G5C,C22A (mixed)", "RNA 1": "B1 RNA 1", "RNA 2": "B1 RNA 2 with C30A, A35G, U36A, G47C"}, "B16": {"name": "target 1 insC 3' of 18,insA 3' of 6 (mixed)", "RNA 1": "B1 RNA 1", "RNA 2": "B7 RNA 2 with G32A, A33U, U34A, A35C, G48A, C49G, A50C"}, "B17": {"name": "target 1 insA 3' of 11,insU 3' of 4 (mixed)", "RNA 1": "B1 RNA 1", "RNA 2": "B3 RNA 2 with U40G, G41U, U42A, C51U"}, "B18": {"name": "target 1 insA 3' of 17,insC 3' of 13 (mixed)", "RNA 1": "B1 RNA 1", "RNA 2": "B13 RNA 2 with G37A, A38G, G39A, A41C, C42G"}, "B19": {"name": "target 1 A1U,A18U (mixed)", "RNA 1": "B1 RNA 1", "RNA 2": "B1 RNA 2 with A34U, A35G, U36A, A51U"}, "B20": {"name": "target 1 insA 3' of 13,insU 3' of 4 (mixed)", "RNA 1": "B1 RNA 1", "RNA 2": "B3 RNA 2 with U40A, C51U"}, "B21": {"name": "target 1 C2G,U8A (mixed)", "RNA 1": "B1 RNA 1", "RNA 2": "B1 RNA 2 with A35G, U36A, U44A, C50G"}, "B22": {"name": "target 1 insU 3' of 17,insU 3' of 15 (mixed)", "RNA 1": "B1 RNA 1", "RNA 2": "B13 RNA 2 with A36U, G37A, A38G, G39U, G40A, A41G, C42G"}, "B23": {"name": "target 1 insU 3' of 20,insA 3' of 19 (mixed)", "RNA 1": "B1 RNA 1", "RNA 2": "B13 RNA 2 with A34U, G35A, G40A, A41G, C42G"}, "B24": {"name": "target 1 A9C,U10G (mixed)", "RNA 1": "B1 RNA 1", "RNA 2": "B1 RNA 2 with A35G, U36A, U42G, A43C"}, "B25": {"name": "target 1 insU 3' of 15,insG 3' of 14 (mixed)", "RNA 1": "B1 RNA 1", "RNA 2": "B13 RNA 2 with A38U, G39A, A41G, C42G"}, "B26": {"name": "target 1 insU 3' of 12,insG 3' of 6 (mixed)", "RNA 1": "B1 RNA 1", "RNA 2": "B3 RNA 2 with U40G, G41U, C49G, U50C, C51U"}, "B27": {"name": "target 1 insC 3' of 20,insA 3' of 15 (mixed)", "RNA 1": "B1 RNA 1", "RNA 2": "B2 RNA 2 with G31C, C32A, A33C, C39A"}, "B28": {"name": "target 1 insG 3' of 8,insU 3' of 2 (mixed)", "RNA 1": "B1 RNA 1", "RNA 2": "B3 RNA 2 with U40G, G41U, U43A, A44U, U45G, C52U"}, "B29": {"name": "target 1 insA 3' of 19,insC 3' of 15 (mixed)", "RNA 1": "B1 RNA 1", "RNA 2": "B2 RNA 2 with G31C, C32A, A33U, U34A"}, "B30": {"name": "target 1 insA 3' of 21,insG 3' of 3 (mixed)", "RNA 1": "B1 RNA 1", "RNA 2": "B7 RNA 2 with G32A, A50U, U51G"}, "B31": {"name": "target 1 U3C,G12C (mixed)", "RNA 1": "B1 RNA 1", "RNA 2": "B1 RNA 2 with A35G, U36A, G40C, U49C"}, "B32": {"name": "target 1 insG 3' of 21,insG 3' of 8 (mixed)", "RNA 1": "B1 RNA 1", "RNA 2": "B7 RNA 2 with C46G, G48C, C49G, A50C"}, "B33": {"name": "target 1 insU 3' of 18,insA 3' of 6 (mixed)", "RNA 1": "B1 RNA 1", "RNA 2": "B7 RNA 2 with G32A, A33U, U34A, A35U, G48A, C49G, A50C"}},
  "note": "Numbering of substitutions follows the chain as printed. Names may count otherwise.",
  "data": [
    {"target": "T1, EsCas13d, nuclease-dead (Eubacterium siraeum, UniProt B0MS50, R295A;H300A;R849A;H854A)", "T1 sequence": "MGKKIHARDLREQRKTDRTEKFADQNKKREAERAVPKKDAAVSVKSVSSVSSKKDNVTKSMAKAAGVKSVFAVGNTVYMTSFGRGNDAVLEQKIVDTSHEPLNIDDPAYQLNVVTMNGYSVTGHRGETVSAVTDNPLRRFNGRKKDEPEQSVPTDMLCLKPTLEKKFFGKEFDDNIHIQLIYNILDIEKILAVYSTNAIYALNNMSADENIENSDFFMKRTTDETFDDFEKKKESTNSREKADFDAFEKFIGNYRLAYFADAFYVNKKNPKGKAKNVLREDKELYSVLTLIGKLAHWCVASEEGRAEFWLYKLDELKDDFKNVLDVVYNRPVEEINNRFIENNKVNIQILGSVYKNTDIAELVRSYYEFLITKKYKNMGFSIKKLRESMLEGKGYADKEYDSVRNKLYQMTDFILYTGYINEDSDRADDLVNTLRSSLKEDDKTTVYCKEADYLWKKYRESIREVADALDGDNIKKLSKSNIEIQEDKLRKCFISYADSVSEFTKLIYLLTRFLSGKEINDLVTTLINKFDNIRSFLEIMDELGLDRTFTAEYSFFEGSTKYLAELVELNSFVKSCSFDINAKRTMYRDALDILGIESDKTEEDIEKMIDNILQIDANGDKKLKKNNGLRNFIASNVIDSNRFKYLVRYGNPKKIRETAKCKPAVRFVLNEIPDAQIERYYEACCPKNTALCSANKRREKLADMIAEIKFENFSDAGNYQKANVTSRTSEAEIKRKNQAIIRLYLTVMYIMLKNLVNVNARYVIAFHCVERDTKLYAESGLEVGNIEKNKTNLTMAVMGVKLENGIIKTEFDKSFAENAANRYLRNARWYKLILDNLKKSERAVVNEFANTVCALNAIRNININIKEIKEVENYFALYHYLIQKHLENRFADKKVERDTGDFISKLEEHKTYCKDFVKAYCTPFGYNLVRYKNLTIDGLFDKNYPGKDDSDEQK", "experiment": "crRNA (strand 1, pre-loaded); Mg2+; 40 mM Tris-HCl pH 7.5, 150 mM NaCl, 6 mM MgCl2, 1 mM DTT, 0.1% Tween-20, 0.2 mg/ml BSA; 25 C; 10 min per concentration, then washed", "conditions": "tags: His6-TwinStrep-SUMO cleaved; N-terminal SNAP kept (SNAP-Surface 488); label: 3' end held by stalled T7 RNA polymerase", "units": {"Kd": "nM"}, "values": [
      {"binder": "B1", "Kd": "44 ± 6"},
      {"binder": "B2", "Kd": "48 ± 4"},
      {"binder": "B3", "Kd": "25 ± 5"},
      {"binder": "B4", "Kd": "6.8 ± 0.5"},
      {"binder": "B5", "Kd": "28.8 ± 2.1"},
      {"binder": "B6", "Kd": "13.9 ± 1.1"},
      {"binder": "B7", "Kd": "41 ± 10"},
      {"binder": "B8", "Kd": "77 ± 9"},
      {"binder": "B9", "Kd": "61 ± 11"},
      {"binder": "B10", "Kd": "17.6 ± 1.1"},
      {"binder": "B11", "Kd": "9.4 ± 0.5"},
      {"binder": "B12", "Kd": "7.6 ± 0.5"},
      {"binder": "B13", "Kd": "30.4 ± 1.8"},
      {"binder": "B14", "Kd": "13.9 ± 0.7"},
      {"binder": "B15", "Kd": "17.3 ± 1.9"},
      {"binder": "B16", "Kd": "32.3 ± 1.5"},
      {"binder": "B17", "Kd": "13.7 ± 0.9"},
      {"binder": "B18", "Kd": "35 ± 4"},
      {"binder": "B19", "Kd": "22 ± 2"},
      {"binder": "B20", "Kd": "3.45 ± 0.26"},
      {"binder": "B21", "Kd": "13.5 ± 0.8"},
      {"binder": "B22", "Kd": "64 ± 28"},
      {"binder": "B23", "Kd": "20.9 ± 1.4"},
      {"binder": "B24", "Kd": "16.1 ± 0.6"},
      {"binder": "B25", "Kd": "22.5 ± 2.2"},
      {"binder": "B26", "Kd": "6.24 ± 0.17"},
      {"binder": "B27", "Kd": "12.2 ± 1.1"},
      {"binder": "B28", "Kd": "15.1 ± 0.6"},
      {"binder": "B29", "Kd": "52 ± 9"},
      {"binder": "B30", "Kd": "11.8 ± 0.6"},
      {"binder": "B31", "Kd": "14 ± 2.3"},
      {"binder": "B32", "Kd": "58 ± 10"},
      {"binder": "B33", "Kd": "32.6 ± 1.1"}
    ]}
  ]
}
